Experimental data published in article PMC2849990 (Structure (London, England : 1993), 2008).

T1: human pyruvate dehydrogenase (E1p) component, heterotetramer alpha2beta2 (Homo sapiens, UniProt P08559+P11177)
T1 sequence (P08559 30-390): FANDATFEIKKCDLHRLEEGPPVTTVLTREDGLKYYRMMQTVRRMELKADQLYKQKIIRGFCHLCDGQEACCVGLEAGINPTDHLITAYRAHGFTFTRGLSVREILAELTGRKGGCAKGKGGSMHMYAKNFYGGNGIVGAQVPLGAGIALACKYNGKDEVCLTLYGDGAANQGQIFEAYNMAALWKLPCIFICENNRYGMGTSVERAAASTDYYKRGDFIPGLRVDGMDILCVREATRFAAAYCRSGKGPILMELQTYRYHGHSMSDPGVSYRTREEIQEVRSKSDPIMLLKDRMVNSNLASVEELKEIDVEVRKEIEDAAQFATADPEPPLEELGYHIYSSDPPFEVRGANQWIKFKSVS
T1 sequence (P11177 31-359): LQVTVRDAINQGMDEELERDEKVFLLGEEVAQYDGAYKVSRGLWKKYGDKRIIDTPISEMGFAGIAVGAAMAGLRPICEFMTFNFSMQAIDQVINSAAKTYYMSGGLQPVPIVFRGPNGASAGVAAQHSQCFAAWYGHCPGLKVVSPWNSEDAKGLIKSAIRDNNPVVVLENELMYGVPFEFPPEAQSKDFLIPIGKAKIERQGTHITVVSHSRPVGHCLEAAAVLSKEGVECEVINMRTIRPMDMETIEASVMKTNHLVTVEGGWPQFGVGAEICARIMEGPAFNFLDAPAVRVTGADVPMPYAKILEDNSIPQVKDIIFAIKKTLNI

T2: human pyruvate dehydrogenase (E1p) component, heterotetramer alpha2beta2 (Homo sapiens, UniProt P08559+P11177, P08559:Y118F)
T2 sequence (P08559 30-390 Y118F): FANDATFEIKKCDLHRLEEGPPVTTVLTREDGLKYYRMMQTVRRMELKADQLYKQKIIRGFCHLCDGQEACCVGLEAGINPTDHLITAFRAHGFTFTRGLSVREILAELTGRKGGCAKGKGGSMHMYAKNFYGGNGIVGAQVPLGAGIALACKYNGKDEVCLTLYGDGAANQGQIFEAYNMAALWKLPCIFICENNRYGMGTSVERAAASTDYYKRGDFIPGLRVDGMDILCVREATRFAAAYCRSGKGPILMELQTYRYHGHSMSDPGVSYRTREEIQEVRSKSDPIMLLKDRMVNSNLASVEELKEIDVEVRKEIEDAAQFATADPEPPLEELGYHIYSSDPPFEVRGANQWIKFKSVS
T2 sequence (P11177 31-359): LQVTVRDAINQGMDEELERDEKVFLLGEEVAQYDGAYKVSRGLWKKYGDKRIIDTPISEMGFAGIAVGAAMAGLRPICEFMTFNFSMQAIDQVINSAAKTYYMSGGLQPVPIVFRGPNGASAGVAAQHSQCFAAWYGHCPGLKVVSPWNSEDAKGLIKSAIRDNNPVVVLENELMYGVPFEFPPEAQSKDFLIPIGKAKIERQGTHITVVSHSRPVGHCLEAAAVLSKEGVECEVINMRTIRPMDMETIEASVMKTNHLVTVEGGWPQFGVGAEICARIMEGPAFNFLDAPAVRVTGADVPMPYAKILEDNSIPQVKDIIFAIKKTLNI

T3: E1p-α subunit of wild-type human E1p (human, UniProt P08559 30-390)
T3 sequence: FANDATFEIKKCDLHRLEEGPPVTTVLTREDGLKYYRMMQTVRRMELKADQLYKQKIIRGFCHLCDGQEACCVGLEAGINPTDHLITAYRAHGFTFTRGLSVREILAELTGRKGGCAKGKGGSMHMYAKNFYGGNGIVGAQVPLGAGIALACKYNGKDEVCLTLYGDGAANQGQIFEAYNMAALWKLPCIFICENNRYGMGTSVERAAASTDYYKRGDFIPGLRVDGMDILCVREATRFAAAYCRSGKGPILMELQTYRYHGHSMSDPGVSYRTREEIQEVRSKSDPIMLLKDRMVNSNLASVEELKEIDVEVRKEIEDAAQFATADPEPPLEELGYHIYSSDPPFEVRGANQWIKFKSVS

T4: E1p-α subunit of S1-E1p (S271A-α, S203A-α) (human, UniProt P08559 30-390, S271A-α | S203A-α)
T4 sequence: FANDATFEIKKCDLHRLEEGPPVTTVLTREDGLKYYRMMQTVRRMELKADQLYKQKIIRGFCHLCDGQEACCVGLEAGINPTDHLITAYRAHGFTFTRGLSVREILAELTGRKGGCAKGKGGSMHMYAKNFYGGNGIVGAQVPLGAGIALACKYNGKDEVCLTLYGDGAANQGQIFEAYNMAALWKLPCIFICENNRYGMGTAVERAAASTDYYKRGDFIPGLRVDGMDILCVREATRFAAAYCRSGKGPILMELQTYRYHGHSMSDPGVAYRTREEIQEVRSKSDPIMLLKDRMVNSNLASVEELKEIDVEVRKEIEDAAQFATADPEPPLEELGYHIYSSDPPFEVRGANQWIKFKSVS

T5: E1p-α subunit of Y89F-α mutant E1p (human, UniProt P08559 30-390, Y89F-α)
T5 sequence: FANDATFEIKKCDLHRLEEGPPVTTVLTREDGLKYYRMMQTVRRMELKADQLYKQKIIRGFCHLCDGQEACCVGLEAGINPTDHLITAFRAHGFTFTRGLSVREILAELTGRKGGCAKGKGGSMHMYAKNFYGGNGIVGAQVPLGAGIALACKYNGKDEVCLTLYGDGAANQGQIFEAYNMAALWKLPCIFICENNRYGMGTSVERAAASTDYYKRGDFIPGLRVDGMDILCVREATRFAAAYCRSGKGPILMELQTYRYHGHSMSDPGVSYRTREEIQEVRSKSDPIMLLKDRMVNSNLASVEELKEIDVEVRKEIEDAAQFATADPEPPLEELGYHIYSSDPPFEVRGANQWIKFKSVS


Experiments:
[1] = molecular target: T1, human pyruvate dehydrogenase (E1p) component, heterotetramer alpha2beta2; experiment: tryptophan fluorescence quenching; assay type: binding
[2] = molecular target: T2, human pyruvate dehydrogenase (E1p) component, heterotetramer alpha2beta2; experiment: tryptophan fluorescence quenching; assay type: binding
[3] = molecular target: T3, E1p-α subunit of wild-type human E1p; experiment: crystal structure
[4] = molecular target: T4, E1p-α subunit of S1-E1p (S271A-α, …); experiment: crystal structure
[5] = molecular target: T5, E1p-α subunit of Y89F-α mutant E1p; experiment: crystal structure

Row | Kd [1] [nM] | Kd [2] [µM] | binding result [3] | binding result [4] | binding result [5] | Molecule
1 | 110 ± 10 | 50.2 ± 4.6 |  |  |  | Cc1ncc(C[n+]2csc(CCO[P@](=O)(O)OP(=O)(O)O)c2C)c(N)n1 [ThDP]
2 |  |  | binds | binds | binds | E1p-β subunit of human E1p (natural protein) LQVTVRDAINQGMDEELERDEKVFLLGEEVAQYDGAYKVSRGLWKKYGDKRIIDTPISEMGFAGIAVGAAMAGLRPICEFMTFNFSMQAIDQVINSAAKTYYMSGGLQPVPIVFRGPNGASAGVAAQHSQCFAAWYGHCPGLKVVSPWNSEDAKGLIKSAIRDNNPVVVLENELMYGVPFEFPPEAQSKDFLIPIGKAKIERQGTHITVVSHSRPVGHCLEAAAVLSKEGVECEVINMRTIRPMDMETIEASVMKTNHLVTVEGGWPQFGVGAEICARIMEGPAFNFLDAPAVRVTGADVPMPYAKILEDNSIPQVKDIIFAIKKTLNI
